Experimental findings from the supplement of paper PMC12042874 are described below.

± gives the uncertainty stated by the source.

This data set is described as follows: amyloid nucleation score (Sup35N fusion, yeast selection) (log enrichment); library NNK3; higher = more nucleation; inactive = no reads after selection. The gist of the method:
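The nucleation score, computed with DiMSum, is the log enrichment of output over input reads, centred on the mode score of non-aggregating sequences. Sequences with under 100 input reads were dropped. Reads were generated by Illumina sequencing of plasmid inserts from psi-negative yeast with Sup35N fused to peptides of 20 random codons, induced with 100 μM copper sulfate for 24 hours and grown 7 days at 30°C on medium lacking adenine and uracil.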
Turning to HASSHYT, the amyloid nucleation score entry was “inactive”.
Next, HCCVLSARGWLIGSMRWPHC: “inactive”; HCLSHTLQHNHTMISANSRS: “inactive”.
HCQQGS: the amyloid nucleation score entry is “inactive”.
HCQSRRWTKFLYMGWLPSSS returned an amyloid nucleation score of 1.55 ± 0.1.
The entry for HDNQFYVMLWAISAAYRLAS is “inactive”; for HECVYYSSLTQSYVSVYIFT it is 2.65 ± 0.077.
The entry for HENYEFLFWWRESFS is “inactive”; for HEVLVVIRNLFDFVVFCVLQ it is “inactive”.
For HEYKCKL, the amyloid nucleation score result was “inactive”.
The entry for HFPAGFFSNWFCSIYYKVY is “inactive”; for HFPTCWVGYVKHAVLRYLIY it is “inactive”; for HGAVRQLNRGRKWSSLETVG it is 0.85 ± 0.19.
As for HGFSVTILTRVLTVGNSRRS, the amyloid nucleation score entry is “inactive”.
Next, HGGMVSMGGNKQ: “inactive”; HGKSYILVWCMRHSRTECVR: “inactive”; HGKVGKRFRLGQKAYVSGLW: “inactive”.
Consider HGMVRCKSDQACDSMVGCVR, for which the amyloid nucleation score result was “inactive”.
The entry for HGRLLYVSYISDMINASYGQ is “inactive”.
Next, HGTIVIDYRHSPW: 1.07 ± 0.1.
The entry for HGTKREKIYLYGYCPDKNHH is “inactive”; for HHKAEGAHVKITDLSFDVKS it is “inactive”.
For HHLKGQ, the amyloid nucleation score result was “inactive”.
Next, HHTKILSSYISWVYILITNS: “inactive”.
The entry for HHYCRGSICESVSQMYWISW is “inactive”.
HIEFNWPVGLARSWMFCFSH: the amyloid nucleation score entry is “inactive”.
Next, HIPGNLYYKDTFRCAELGHW: “inactive”; HIWVCHWRYYVIMLPRSAWI: “inactive”.
Regarding HKILRSVGFGRILAYGLLDI, the amyloid nucleation score entry is “inactive”.
The figure for HKQCWYILVNVRLMSRSRRV is 0.818 ± 0.13.
HLELDFNFSVLHTYCYFLAP: the amyloid nucleation score result was “inactive”.
For HLFSNTWYTK, the amyloid nucleation score result was “inactive”.
Regarding HLIST, the amyloid nucleation score entry is “inactive”.
Next, HLKCLGNKACEGRVITHVAD: “inactive”; HLKSVGVVYDWMSQWSLWCR: “inactive”; HLLELELVFSILRRLMYWPM: “inactive”.
Next, HLLIHANF: 1.25 ± 0.14.
Next, HLPKLLYATFKWSRYSSKFA: -0.172 ± 1.3.
In the case of HLPRKLVRPRRF, the amyloid nucleation score was -0.415 ± 1.2.
As for HLRLYCHPMNFRWHRRYYEP, the amyloid nucleation score was determined as 0.249 ± 0.4.
The entry for HLSFDIVV is “inactive”; for HLSWNSLTDRNVLC it is “inactive”; for HLSYKSQLS it is “inactive”.
Regarding HLVAVWVSWGILYRSVHCRS, the amyloid nucleation score result is “inactive”.
The entry for HLWVSVVNSTESSMTMA is “inactive”; for HMGNKRLCYCSSR it is -0.326 ± 0.87; for HMLSNFGARVREYIAMFGRL it is “inactive”.
HMSVVSVFIRRMPNASSTRR: the amyloid nucleation score came to 0.562 ± 0.13.
In the case of HMVSFAERTVSDVGTVNPGQ, the amyloid nucleation score entry is “inactive”.
For the substance HNCASCSVRVHDSQSEKIAT, the amyloid nucleation score entry was “inactive”.
For HNLVSSSSTCCRRHPCMAG, the amyloid nucleation score result was “inactive”.
The entry for HNNLLSCYLMAPVFHSMMSE is “inactive”; for HNRLEAMFY it is “inactive”.
Next, HNSRFPSF: 0.338 ± 0.58; HNYLRS: “inactive”.
For the substance HPESCPGLGSLSGEPR, the amyloid nucleation score entry was “inactive”.
Next, HPLDYTVGSVVMGV: “inactive”; HQISFSM: “inactive”; HRDETGVHAVALSKSVWYKW: -1.07 ± 1.1.
For HRDYFFRPTFL, the amyloid nucleation score entry is “inactive”.
With HRIVSFYRNSWVPSIFVYED, the amyloid nucleation score result was “inactive”.
Next, HRKIRFGYSL: “inactive”.
The entry for HRRLGRTFFCATLGLHLCDF is “inactive”; for HRSNCDYDIQYVYIFFS it is 2.36 ± 0.063.
For the substance HRVIWSFSFVRSDFCFPYCA, the amyloid nucleation score entry was “inactive”.
Take HSCITFSLPCTFRQRFCLLS: the amyloid nucleation score entry was “inactive”.
HSELW: the amyloid nucleation score result is “inactive”.
With HSKFWFCLFRIFQVSGLFNR, the amyloid nucleation score entry was “inactive”.
In the case of HSLVSLWYGSRCIILSR, the amyloid nucleation score result was “inactive”.
Next, HSNVGCKFAIKYSLAFCGVK: “inactive”; HSRAVLTLLW: “inactive”.
As for HSRTYFQSISGWISCLMSTL, the amyloid nucleation score was 1.13 ± 0.11.
As to HSSCGNEVFFDSSVGSNRIL, the amyloid nucleation score result was “inactive”.
As for HSSGDTWLGRV, the amyloid nucleation score entry was “inactive”.
For the substance HSSSLLRLQPVVHYLLLNVD, the amyloid nucleation score result was “inactive”.
Next, HSVIPWDTISDTA: “inactive”; HSVIRRFNIPMELYHMWLIS: “inactive”.
The entry for HSVIVVCVFSYELFEFHSAV is “inactive”; for HTVVPNRVNSPCVWWLFFVW it is 1.3 ± 0.11.
Next, HTWFNFVYEVRSNKLTP: “inactive”; HVAGTCAQLTLFKDIGLTYK: “inactive”; HVDPCWQKTFTMMLFWVFLR: “inactive”.
As for HVFRLAWTMKLWEADTLS, the amyloid nucleation score entry was “inactive”.
Next, HVKDVMQRNFRVMGSSSR: “inactive”.
Next, HVLKDARCDS: 0.181 ± 0.36; HVNNTKSSLVRLSVLMHSVS: “inactive”; HVTRLVFMNSRYVAKFVGRA: “inactive”.
Consider HWACNWI, for which the amyloid nucleation score result was “inactive”.
Next, HWHMIMIKCQLEFTKEVIRA: “inactive”; HWSFQTVIDYGHPKFF: 1.45 ± 0.15; HWTNHYNYCGRA: 1.19 ± 0.082.
On to HYAVQYTNRYKGFKLHKQHN, for which the amyloid nucleation score result is “inactive”.
As for HYPIRERNAFLLNNDVDLLA, the amyloid nucleation score result was “inactive”.
Take HYRYGKHREKMLMSAIVWLS: the amyloid nucleation score entry is “inactive”.
HYWEVYLGTCLRAQDVQER registered an amyloid nucleation score of 1.57 ± 0.097.
Consider HYWVLSFLNETALIIEFWH, for which the amyloid nucleation score result was “inactive”.
In the case of HYYVSTDLWSIMMYTILRPC, the amyloid nucleation score entry is “inactive”.
Next, IAAIGLELYWFFIVSIWGY: “inactive”; IAARW: “inactive”.
Next, IADCVLIN: “inactive”; IAFTNLVKVCGLTGYA: “inactive”; IAGMCGRGWREPLVERSGKD: “inactive”.
The figure for IAHVMYNYQHVTSCNMSSVL is 0.726 ± 0.13; for IALSGRYRDSAACRDSCHVA it is “inactive”.
Consider IAVDFRYCYDYGSNSSCRLA, for which the amyloid nucleation score came to 1.88 ± 0.11.
Turning to ICDSDFRY, the amyloid nucleation score result is “inactive”.
Next, ICEQKEFPYVEQWLD: “inactive”; ICGIDSLN: “inactive”.
As for ICIFVFFRYWHVVHVT, the amyloid nucleation score result was “inactive”.
Consider ICINVESIKPMRWQAMI, for which the amyloid nucleation score entry was “inactive”.
For the substance ICKNYSVLVLRFGGSEGPTV, the amyloid nucleation score is 1.52 ± 0.1.
Regarding ICNSY, the amyloid nucleation score result was “inactive”.
Next, ICPTWELNIRP: “inactive”; ICRQS: “inactive”; ICSSFDGQ: 0.458 ± 0.2.
Next, ICSVVIEGVFLRRLWDSRVS: “inactive”.
Next, ICWLVMEVLG: “inactive”.
For the substance ICYTALGCYISSQFSGWGRM, the amyloid nucleation score turned out to be 1.12 ± 0.088.
The figure for IDCCWSCV is 0.16 ± 0.34; for IDFRFFQPQAVCGNLSCYRE it is 0.227 ± 0.23.
Next, IDIVCAF: “inactive”; IDLKGLGLYSTSEVWARQQK: “inactive”; IDLSAMFFAFFVIFVFVWIW: “inactive”.
Take IDLTTDSLDM: the amyloid nucleation score entry is “inactive”.
On to IDNMAVIYWTVNFVCRVW, for which the amyloid nucleation score is 1.26 ± 0.085.
Turning to IDRFHYSLTTDT, the amyloid nucleation score entry is “inactive”.
Consider IDSAEASCIGCLVRQCADPI, for which the amyloid nucleation score entry is “inactive”.
In turn, IDSNGYVLLVRDGREKVVRC returned an amyloid nucleation score of 0.204 ± 0.29.
The figure for IDVTQERRVGDSTCALGTH is -0.168 ± 0.73; for IEDQHLHVVLTGWGSKLSGH it is “inactive”; for IEIFEFFSRSSNRSQPGAPL it is “inactive”.
Next, IELVFAHVYCGMRWNSEASR: 1.4 ± 0.084.
